The values below come from US20230287120A1 (ALLOGENE THERAPEUTICS, published 2023).

For one assay, the target named is T1, EGF2-EGF6.
T1 construct: also called Human DLL3 EGF2-EGF6, N-terminal HA tag, on CHO cells
T1 single chain: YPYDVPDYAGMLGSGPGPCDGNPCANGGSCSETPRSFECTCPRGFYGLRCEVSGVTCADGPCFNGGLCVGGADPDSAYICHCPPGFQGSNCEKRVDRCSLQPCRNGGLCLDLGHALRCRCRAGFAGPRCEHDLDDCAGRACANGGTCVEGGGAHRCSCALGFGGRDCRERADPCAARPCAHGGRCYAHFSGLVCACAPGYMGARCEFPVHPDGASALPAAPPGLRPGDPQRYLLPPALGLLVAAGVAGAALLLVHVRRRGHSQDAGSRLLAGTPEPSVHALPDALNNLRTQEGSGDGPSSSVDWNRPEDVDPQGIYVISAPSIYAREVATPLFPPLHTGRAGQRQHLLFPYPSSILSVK
Description: flow cytometry on CHO cells with the HA tagged DLL3 construct, PE anti-mouse IgG. (Flow cytometry measures light scatter and fluorescence of single cells or particles in a stream.)

The next assay has as its target T2, EGF1-EGF6.
T2 construct: also called Human DLL3 EGF1-EGF6, N-terminal HA tag, on CHO cells
T2 single chain: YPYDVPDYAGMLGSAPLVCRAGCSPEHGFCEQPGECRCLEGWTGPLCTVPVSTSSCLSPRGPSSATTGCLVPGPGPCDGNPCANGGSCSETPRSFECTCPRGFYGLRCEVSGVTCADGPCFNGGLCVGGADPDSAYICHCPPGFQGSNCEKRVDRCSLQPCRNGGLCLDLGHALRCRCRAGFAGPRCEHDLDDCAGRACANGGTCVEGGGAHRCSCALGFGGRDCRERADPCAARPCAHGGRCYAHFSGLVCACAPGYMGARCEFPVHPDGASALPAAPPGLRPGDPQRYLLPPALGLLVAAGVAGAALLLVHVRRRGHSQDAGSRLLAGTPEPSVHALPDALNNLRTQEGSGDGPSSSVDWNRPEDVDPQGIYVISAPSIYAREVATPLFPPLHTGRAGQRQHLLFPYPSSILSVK
Described as above.

The next assay addresses T3, EGF4-EGF6.
T3 construct: also called Human DLL3 EGF4-EGF6, N-terminal HA tag, on CHO cells
T3 single chain: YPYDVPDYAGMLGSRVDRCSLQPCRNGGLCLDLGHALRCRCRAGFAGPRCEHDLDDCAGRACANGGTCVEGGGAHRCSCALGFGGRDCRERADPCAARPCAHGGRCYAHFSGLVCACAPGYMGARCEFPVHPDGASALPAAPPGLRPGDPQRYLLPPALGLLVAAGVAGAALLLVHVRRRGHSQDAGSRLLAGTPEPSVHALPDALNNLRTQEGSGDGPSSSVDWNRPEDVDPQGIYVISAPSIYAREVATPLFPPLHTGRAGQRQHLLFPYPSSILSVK
The description is as above.

A further assay deals with T4, EGF3-EGF6.
T4 construct: also called Human DLL3 EGF3-EGF6, N-terminal HA tag, on CHO cells
T4 single chain: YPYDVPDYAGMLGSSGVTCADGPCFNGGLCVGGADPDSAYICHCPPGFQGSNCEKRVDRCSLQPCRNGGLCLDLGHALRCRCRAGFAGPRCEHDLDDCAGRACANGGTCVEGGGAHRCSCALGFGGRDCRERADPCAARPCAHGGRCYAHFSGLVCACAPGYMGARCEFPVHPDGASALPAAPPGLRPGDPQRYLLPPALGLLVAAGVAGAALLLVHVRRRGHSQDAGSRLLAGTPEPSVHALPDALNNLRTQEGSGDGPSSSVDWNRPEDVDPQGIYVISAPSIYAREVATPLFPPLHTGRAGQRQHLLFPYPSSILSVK
Described as above.

The next assay addresses T5, DSL-EGF6.
T5 construct: also called Human DLL3 DSL-EGF6, N-terminal HA tag, on CHO cells
T5 single chain: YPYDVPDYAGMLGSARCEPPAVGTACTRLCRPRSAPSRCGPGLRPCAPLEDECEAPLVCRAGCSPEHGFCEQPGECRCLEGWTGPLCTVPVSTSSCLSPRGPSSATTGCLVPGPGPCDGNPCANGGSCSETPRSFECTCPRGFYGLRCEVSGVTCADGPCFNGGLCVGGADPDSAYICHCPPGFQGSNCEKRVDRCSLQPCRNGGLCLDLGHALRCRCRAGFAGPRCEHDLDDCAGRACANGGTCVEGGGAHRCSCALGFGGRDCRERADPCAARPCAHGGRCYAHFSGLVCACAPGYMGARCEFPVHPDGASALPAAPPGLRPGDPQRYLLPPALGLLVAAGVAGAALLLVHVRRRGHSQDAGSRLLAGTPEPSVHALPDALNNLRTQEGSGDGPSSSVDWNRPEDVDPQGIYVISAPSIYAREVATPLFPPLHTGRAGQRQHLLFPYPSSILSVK
The description is as above.

Assay [1] addresses T6, human DLL3 extracellular domain (ECD) with C-terminal 8xHis tag and Avi tag (human, UniProt Q9NYJ7 27-492).
T6 construct: extracellular domain; Expressed in Expi293, purified by IMAC and SEC; also called huDLL3; not shown: Avi tag
T6 sequence: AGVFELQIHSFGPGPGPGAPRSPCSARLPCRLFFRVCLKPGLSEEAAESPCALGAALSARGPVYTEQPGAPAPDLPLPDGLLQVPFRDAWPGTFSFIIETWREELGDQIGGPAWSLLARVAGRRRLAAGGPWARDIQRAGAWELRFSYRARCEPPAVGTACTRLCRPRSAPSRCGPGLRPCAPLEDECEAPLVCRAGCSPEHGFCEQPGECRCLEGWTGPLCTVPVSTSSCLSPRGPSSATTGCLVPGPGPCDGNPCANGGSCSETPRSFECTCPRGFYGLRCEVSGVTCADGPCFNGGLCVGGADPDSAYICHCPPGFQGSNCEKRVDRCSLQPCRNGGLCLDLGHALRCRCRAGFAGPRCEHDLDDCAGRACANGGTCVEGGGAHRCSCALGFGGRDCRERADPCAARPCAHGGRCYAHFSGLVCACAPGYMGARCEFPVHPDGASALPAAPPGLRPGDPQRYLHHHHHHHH
Description: SPR (Biacore), 37 C; IgG captured on chip, human DLL3 ECD in solution; 1:1 Langmuir fit. A general note: In SPR one partner is held on a chip, and binding of the other changes the refractive index at the surface.

For a further assay, the target named is T7, EGF5-EGF6.
T7 construct: also called Human DLL3 EGF5-EGF6, N-terminal HA tag, on CHO cells
T7 single chain: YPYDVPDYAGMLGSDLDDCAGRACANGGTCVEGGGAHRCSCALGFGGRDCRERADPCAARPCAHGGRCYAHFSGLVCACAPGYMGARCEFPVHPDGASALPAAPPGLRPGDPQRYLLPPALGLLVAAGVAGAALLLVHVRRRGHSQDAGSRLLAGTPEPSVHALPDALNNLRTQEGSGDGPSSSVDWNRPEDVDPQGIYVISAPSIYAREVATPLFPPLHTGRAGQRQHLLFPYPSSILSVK
Put plainly: flow cytometry on CHO cells with the HA tagged DLL3 construct, PE anti-mouse IgG.

A further assay has as its target T8, EGF6.
T8 construct: also called Human DLL3 EGF6, N-terminal HA tag, on CHO cells
T8 single chain: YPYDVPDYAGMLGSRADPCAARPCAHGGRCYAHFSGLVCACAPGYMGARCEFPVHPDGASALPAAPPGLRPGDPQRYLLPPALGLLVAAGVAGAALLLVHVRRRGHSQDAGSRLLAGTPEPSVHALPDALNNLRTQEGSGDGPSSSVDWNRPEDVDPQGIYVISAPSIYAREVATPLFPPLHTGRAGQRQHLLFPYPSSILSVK
The description is as above.

Description for DSL-EGF6: (§1) The samples were analyzed by flow cytometry. […] Signals from the PE channel are shown on the x-axis and counts are shown on the y-axis.
Description for EGF1-EGF6: as §1
Description for EGF2-EGF6: as §1
Description for EGF3-EGF6: as §1
Description for EGF4-EGF6: as §1
Description for EGF5-EGF6: as §1

B1: anti-DLL3 antibody 6D8 (IgG) (antibody, V domains shown)
VH: QITLKESGPTLVKPTQTLTLTCTFSGFSLSTRGVGVGWIRQPPGKALEWLALIYWNDDKRYSPSLQTRLTITKDTPKNQVVLTMTNMDPVDTATYYCARSNWGNWYFALWGRGTLVTVSS
VL: EIVLTQSPATLSLSPGERATLSCRASQSVSSYLAWYQQKPGQAPRLLIYDAFYRATGIPARFSGSGSGTDFTLTISSLEPEDFAVYYCQHRSNWPITFGQGTRLEIK
notes: Full-length monoclonal antibody (IgG)
Take B1: the binding result was “no binding” in the assay with EGF2-EGF6; “binds” with EGF1-EGF6; “no binding” with EGF4-EGF6; “no binding” with EGF3-EGF6; “binds” with DSL-EGF6; “no binding” with EGF5-EGF6. Moreover, in the assay with EGF6, the binding result is recorded as “no binding”. Moreover, the Kd (usually the constant that tells how readily two partners part at equilibrium) in assay [1] was below 1.42 nM.

B2: anti-DLL3 antibody 26C8 (IgG) (antibody, V domains shown)
VH: QVQLQESGPGLVKPSETLSLTCTVSDNSISNYYWSWIRQPPGKGLEWIAYIYYSGTTNYNPSLKSRVTISLDTSKNQFSLQLSSVTAADAAVYYCARVFHWGFAFDIWGQGTMVTVSS
VL: EIVLTQSPGTLSLSPGERATLSCRASQRVSNTYLAWYQQNPGQAPRLLIYGASSRATGIPDRFSGSGSGTDFTLTISRLEPEDFAVYYCQQYGTSPLTFGGGTKVEIK
notes: as for B1
With B2, the binding result is recorded as “binds” with EGF2-EGF6; “binds” with EGF1-EGF6; “no binding” in the assay with EGF4-EGF6; “binds” in the assay with EGF3-EGF6; “binds” with DSL-EGF6; “no binding” with EGF5-EGF6. The binding result in the assay with EGF6 is recorded as “no binding”. The affinity in assay [1], expressed as Kd, was 5.54 nM.
